Data published in patent publication EP4477673A1, “IMMUNOCONJUGATE AND USE THEREOF” (priority 2022, dated 2023).
Read-outs that look alike come from different tables or passages of the source. Blank lines part the entries; values can stand above or below the binder they belong to.

Assays:
[1] = molecular target: T1, cynomolgus monkey PD-1 antigen protein (Sino Biological, 90311-C08H) (cynomolgus monkey, UniProt B0LAJ3 25-170); test: SPR Biacore 8K, antibody captured by anti-human IgG (Fc), cynomolgus PD-1 as analyte
T1 construct: not shown: Tag of the vendor's construct (Sino Biological 90311-C08H, probably a C-terminal His tag)
T1 sequence (B0LAJ3 entry or part of it C08H C08H limits assumed, form in doubt): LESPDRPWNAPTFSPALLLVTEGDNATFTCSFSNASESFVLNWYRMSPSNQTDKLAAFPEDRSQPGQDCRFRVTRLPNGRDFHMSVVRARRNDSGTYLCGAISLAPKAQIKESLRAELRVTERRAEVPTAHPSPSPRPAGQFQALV

[2] = molecular target: T2, Human PD-1 antigen protein (Sino Biological, 10377-H08H) (human, UniProt Q15116 25-167); test: SPR Biacore 8K, antibody captured by anti-human IgG (Fc), PD-1 as analyte
T2 sequence (Q15116 25-167 limits assumed): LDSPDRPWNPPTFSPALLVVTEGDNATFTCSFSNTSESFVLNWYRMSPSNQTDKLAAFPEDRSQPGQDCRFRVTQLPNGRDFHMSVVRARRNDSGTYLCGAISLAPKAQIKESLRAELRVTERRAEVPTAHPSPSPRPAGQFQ

human PD-1 [3] = molecular target: T3, human PD-1 (human, UniProt Q15116 25-288); test: cell-based or functional assay
T3 sequence (Q15116 25-288 limits assumed): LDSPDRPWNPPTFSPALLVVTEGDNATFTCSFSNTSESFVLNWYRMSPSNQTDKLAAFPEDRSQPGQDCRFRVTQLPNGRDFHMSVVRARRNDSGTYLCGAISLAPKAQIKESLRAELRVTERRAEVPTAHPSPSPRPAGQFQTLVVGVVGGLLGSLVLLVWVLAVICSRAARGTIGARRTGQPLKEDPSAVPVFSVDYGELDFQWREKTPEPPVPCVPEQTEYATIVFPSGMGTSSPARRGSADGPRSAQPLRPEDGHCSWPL

human PD-1 [4] = molecular target: T3, human PD-1; test: cell-based or functional assay; remark: listed apart in the source
[5] = molecular target: T4, human IL-2Rα receptor protein (Sino Biological, 10165-H08H) (human, UniProt P01589 22-213); test: SPR Biacore 8K, fusion protein captured by anti-human IgG (Fc), IL-2Rα as analyte
T4 construct: also called CD25
T4 sequence (looked up): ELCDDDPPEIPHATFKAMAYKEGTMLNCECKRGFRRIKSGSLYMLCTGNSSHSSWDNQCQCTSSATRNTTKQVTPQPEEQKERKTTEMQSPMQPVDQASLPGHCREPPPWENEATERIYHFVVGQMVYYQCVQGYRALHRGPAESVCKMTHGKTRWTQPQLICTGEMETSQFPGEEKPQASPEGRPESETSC

human PD-1 [6] = molecular target: T3, human PD-1; test: cell-based or functional assay; remark: listed apart in the source
[7] = molecular target: T5, human IL-2Rβ/γ receptor heterodimer protein (Acrosystem, ILG-H5283) (human, UniProt P14784 27-239; P31785 23-262, limits assumed); test: SPR Biacore 8K; affinity for human IL-2Rβ/γ against A-PC
T5 sequence (looked up) 1: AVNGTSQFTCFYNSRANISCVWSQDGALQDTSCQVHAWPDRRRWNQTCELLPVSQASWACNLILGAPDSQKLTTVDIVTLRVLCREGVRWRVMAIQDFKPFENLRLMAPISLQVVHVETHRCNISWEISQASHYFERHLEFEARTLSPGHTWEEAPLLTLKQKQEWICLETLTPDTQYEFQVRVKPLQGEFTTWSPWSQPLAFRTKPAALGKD
T5 sequence (looked up) 2: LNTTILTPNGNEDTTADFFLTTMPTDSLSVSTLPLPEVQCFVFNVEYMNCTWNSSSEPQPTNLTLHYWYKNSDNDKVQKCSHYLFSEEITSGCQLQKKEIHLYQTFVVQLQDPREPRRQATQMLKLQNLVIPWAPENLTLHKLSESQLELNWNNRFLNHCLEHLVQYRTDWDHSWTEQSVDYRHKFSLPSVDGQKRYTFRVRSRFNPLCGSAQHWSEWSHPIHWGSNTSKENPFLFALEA

[8] = molecular target: T2, Human PD-1 antigen protein (Sino …); test: SPR Biacore 8K, fusion protein captured by anti-human IgG (Fc), human PD-1 as analyte
human PD-1 [9] = molecular target: T3, human PD-1; test: cell-based or functional assay; remark: listed apart in the source
IL-2Rβ/γ on M07e cells = molecular target: T6, IL-2Rβ/γ on M07e cells (human, UniProt P14784 27-551; P31785 23-369); test: cell-based or functional assay
T6 sequence (looked up) 1: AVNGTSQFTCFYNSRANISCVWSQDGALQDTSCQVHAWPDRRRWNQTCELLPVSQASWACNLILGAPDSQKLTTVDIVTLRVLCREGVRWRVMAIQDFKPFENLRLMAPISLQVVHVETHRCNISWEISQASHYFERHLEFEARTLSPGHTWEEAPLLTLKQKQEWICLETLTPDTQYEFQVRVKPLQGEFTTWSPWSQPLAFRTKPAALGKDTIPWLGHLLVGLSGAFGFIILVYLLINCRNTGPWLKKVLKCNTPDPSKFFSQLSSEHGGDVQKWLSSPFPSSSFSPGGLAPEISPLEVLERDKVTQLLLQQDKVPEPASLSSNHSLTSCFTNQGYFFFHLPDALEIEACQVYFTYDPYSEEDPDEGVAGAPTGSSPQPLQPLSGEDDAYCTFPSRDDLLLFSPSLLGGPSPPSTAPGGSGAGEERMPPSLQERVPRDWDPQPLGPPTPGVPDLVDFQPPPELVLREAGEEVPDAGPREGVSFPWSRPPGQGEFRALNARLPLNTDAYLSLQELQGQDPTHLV
T6 sequence (looked up) 2: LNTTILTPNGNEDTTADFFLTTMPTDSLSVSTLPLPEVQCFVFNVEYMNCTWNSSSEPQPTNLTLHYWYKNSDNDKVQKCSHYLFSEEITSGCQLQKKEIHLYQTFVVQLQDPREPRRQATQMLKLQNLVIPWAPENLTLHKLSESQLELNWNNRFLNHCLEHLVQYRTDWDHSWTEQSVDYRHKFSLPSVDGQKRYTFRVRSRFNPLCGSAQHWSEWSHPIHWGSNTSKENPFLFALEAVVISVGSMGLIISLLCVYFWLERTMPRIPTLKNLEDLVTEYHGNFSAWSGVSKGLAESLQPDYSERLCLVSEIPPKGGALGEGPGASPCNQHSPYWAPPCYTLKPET

[10] = molecular target: T5, human IL-2Rβ/γ receptor heterodimer …; test: SPR Biacore 8K, fusion protein captured by anti-human IgG (Fc), human IL-2Rβ/γ heterodimer as analyte

- Kd [1]: 3.28 nM
- koff [1]: 0.00108 s⁻¹
- kon [1]: 328000 M⁻¹ s⁻¹
- Kd [2]: 6.09 nM
- koff [2]: 0.00177 s⁻¹
- kon [2]: 291000 M⁻¹ s⁻¹
- IC50, PD-1/PD-L1 NFAT reporter gene system (human PD-1 [3]): 0.435 nM
B1: A17m0902_hIgG4 (antibody, V domains shown)
VH: EVQLVESGGGLVQPGGSLRLSCAASGLTFSDYSMSWYRQAPGKGRELVAIISGSGVITHYVDSVKGRFTISRDNAKNTLYLQMRSLRAEDTAVYYCRAVSDWEDYWGQGTQVTVSS
notes: VHH-Fc antibody; not shown: human IgG4 Fc with hinge region and S228P (EU)

- M07e-hPD-1 cell proliferation ratio (%) at 0.0001 nM (human PD-1 [4]): 0.8%
- M07e-hPD-1 cell proliferation ratio (%) at 0.001 nM (human PD-1 [4]): 0%
- M07e-hPD-1 cell proliferation ratio (%) at 0.01 nM (human PD-1 [4]): 4.8%
- M07e-hPD-1 cell proliferation ratio (%) at 0.1 nM (human PD-1 [4]): 18.3%
- M07e-hPD-1 cell proliferation ratio (%) at 1 nM (human PD-1 [4]): 21.3%
- M07e-hPD-1 cell proliferation ratio (%) at 10 nM (human PD-1 [4]): 25.2%
- M07e-hPD-1 cell proliferation ratio (%) at 100 nM (human PD-1 [4]): 31.1%
- M07e-hPD-1 cell proliferation ratio (%) at 1000 nM (human PD-1 [4]): 45.5%
- binding result [5]: no binding
- M07e-hPD-1 cell proliferation ratio (%) at 0.0001 nM (human PD-1 [6]): 5.2%
- M07e-hPD-1 cell proliferation ratio (%) at 0.001 nM (human PD-1 [6]): 4.4%
- M07e-hPD-1 cell proliferation ratio (%) at 0.01 nM (human PD-1 [6]): 13.4%
- M07e-hPD-1 cell proliferation ratio (%) at 0.1 nM (human PD-1 [6]): 30.8%
- M07e-hPD-1 cell proliferation ratio (%) at 1 nM (human PD-1 [6]): 36%
- M07e-hPD-1 cell proliferation ratio (%) at 10 nM (human PD-1 [6]): 35.5%
- M07e-hPD-1 cell proliferation ratio (%) at 100 nM (human PD-1 [6]): 41.1%
- M07e-hPD-1 cell proliferation ratio (%) at 1000 nM (human PD-1 [6]): 55.4%
- fold lower affinity than A-PC [7]: ~13 fold
- Kd [8]: 17.6 nM
- koff [8]: 0.00175 s⁻¹
- kon [8]: 99800 M⁻¹ s⁻¹
- M07e-hPD-1 cell proliferation activity (%) at 0.0001 nM (human PD-1 [9]): 2.8%
- M07e-hPD-1 cell proliferation activity (%) at 0.001 nM (human PD-1 [9]): 3.3%
- M07e-hPD-1 cell proliferation activity (%) at 0.01 nM (human PD-1 [9]): 18.1%
- M07e-hPD-1 cell proliferation activity (%) at 0.1 nM (human PD-1 [9]): 32.1%
- M07e-hPD-1 cell proliferation activity (%) at 1 nM (human PD-1 [9]): 41.8%
- M07e-hPD-1 cell proliferation activity (%) at 10 nM (human PD-1 [9]): 45%
- M07e-hPD-1 cell proliferation activity (%) at 100 nM (human PD-1 [9]): 61.1%
- M07e-hPD-1 cell proliferation activity (%) at 1000 nM (human PD-1 [9]): 66.9%
- M07e cell proliferation activity (%) at 0.46 nM (IL-2Rβ/γ on M07e cells): -1.7%
- M07e cell proliferation activity (%) at 1.4 nM (IL-2Rβ/γ on M07e cells): -1.1%
- M07e cell proliferation activity (%) at 4.1 nM (IL-2Rβ/γ on M07e cells): -1.5%
- M07e cell proliferation activity (%) at 12 nM (IL-2Rβ/γ on M07e cells): -1.9%
- M07e cell proliferation activity (%) at 37 nM (IL-2Rβ/γ on M07e cells): -2.8%
- M07e cell proliferation activity (%) at 111 nM (IL-2Rβ/γ on M07e cells): -1.8%
- M07e cell proliferation activity (%) at 333 nM (IL-2Rβ/γ on M07e cells): 0.2%
- M07e cell proliferation activity (%) at 1000 nM (IL-2Rβ/γ on M07e cells): 14.6%
- Kd [10]: 3.38 nM
- koff [10]: 0.000215 s⁻¹
- kon [10]: 63700 M⁻¹ s⁻¹
B2: A-N88D (Fc fusion)
chain (part 1 of 2): EVQLVESGGGLVQPGGSLRLSCAASGLTFSDYSMSWYRQAPGKGRELVAIISGSGVITHYVDSVKGRFTISRDNAKNTLYLQMRSLRAEDTAVYYCRAVSDWEDYWGQGTQVTVSS
chain (part 2 of 2): GGGGSGGGGSGGGGSAPASSSTKKTQLQLEHLLLDLQMILQGISNYKNPKLTRMLTAKFYMPKKATELKHLQCLEEELKPLEEVLQGAQSKNFHLRPRDLISDINVIVLELKGSETTFMCEYADETATIVEFLNRWITFAQSIISTLT
chain: EVQLVESGGGLVQPGGSLRLSCAASGLTFSDYSMSWYRQAPGKGRELVAIISGSGVITHYVDSVKGRFTISRDNAKNTLYLQMRSLRAEDTAVYYCRAVSDWEDYWGQGTQVTVSS
notes: also called PD-1-IL-2v (N88D); not shown: IgG1 hinge (C220S) + Fc Knob chain (L234A, L235A, S354C, T366W, EU); D356/L358 or E356/M358 ver; IgG1 hinge (C220S) + Fc Hole chain (L234A, L235A, Y349C, T366S, L368A, Y407V; may have H435R, Y436F; EU)
